Experimental data published in the supplement of paper PMC12042874.
± gives the uncertainty stated by the source.

Assays:
[1] = amyloid nucleation score (Sup35N fusion, yeast selection) (log enrichment); library NNK2; higher = more nucleation; inactive = no reads after selection
Procedure, shortened: (§1)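 Peptides of 20 random codons fused to Sup35N were expressed in psi-negative yeast, induced 24 hours with 100 μM copper sulfate, then grown 7 days at 30°C on medium lacking adenine and uracil. Input and output plasmid inserts were Illumina-sequenced. Nucleation score is the DiMSum log enrichment of output over input reads, centred on the mode score of non-aggregating sequences, excluding sequences with under 100 input reads. Random libraries had three technical output replicates.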

[2] = amyloid nucleation score (Sup35N fusion, yeast selection) (log enrichment); library NNK3; higher = more nucleation; inactive = no reads after selection
Procedure, shortened: as §1

In the case of ARYLITTAQVPVLGPRSQHK, the amyloid nucleation score [1] is reported as 0.073 ± 0.41.

ASAEQRNLCIEFASDQLYVI gave an amyloid nucleation score [1] of -0.478 ± 0.38.

With ASAYSPASRRSTDMADALV the amyloid nucleation score [1] was 0.496 ± 0.31.

ASDWLNRNSNS gave an amyloid nucleation score [1] of -0.211 ± 0.28.

In the case of ASGVFSLAEYNFFGISKKSF, the amyloid nucleation score [1] is reported as “inactive”.

ASIPINHPHRVRLNTSYECI gave an amyloid nucleation score [1] of -0.657 ± 0.56.

Substance ASMKGYV has an amyloid nucleation score [1] of 0.148 ± 0.5.

ASTSLMVN showed an amyloid nucleation score [1] of 0.052 ± 0.46.

In the case of ATQRHVSTGKSGSN, the amyloid nucleation score [1] is reported as 0.606 ± 0.8.

ATQVMMGVAEYACLYNCTHM gave an amyloid nucleation score [1] of 8.223 ± 0.078.

With ATRCFSNWDTSACYMWKC the amyloid nucleation score [1] was 8.074 ± 0.061.

Substance ATVRLHNGFG has an amyloid nucleation score [1] of 0.127 ± 0.31.

With AVALYVSDSQDHPGNRNVLV the amyloid nucleation score [1] was 2.45 ± 0.099.

AVCVENLCPWV showed an amyloid nucleation score [1] of 1.82 ± 0.11.

AVEAYNMSNYLLRYISGSV showed an amyloid nucleation score [1] of -0.109 ± 0.65.

With AVFTIFALVRS the amyloid nucleation score [1] was 1.08 ± 0.51.

Work on AVFVPNSNALVLTVLT yielded an amyloid nucleation score [1] of 0.603 ± 0.51.

AVKCGNGSEF showed an amyloid nucleation score [1] of -0.066 ± 0.45.

For AVMAISMRS, the amyloid nucleation score [1] was 0.514 ± 0.56.

AVMMCIASIDFRVWYLG gave an amyloid nucleation score [1] of 1.53 ± 0.15.

For AVNCH, the amyloid nucleation score [1] was 0.748 ± 0.19.

AVQAIITHQTLGKQVFFWFE showed an amyloid nucleation score [1] of 7.85 ± 0.076.

AVSIGLYFVQASP showed an amyloid nucleation score [1] of 9.658 ± 0.052.

In the case of AVSVAVLRHLEVRRKVWS, the amyloid nucleation score [1] is reported as 1.66 ± 0.15.

AWCFLYLLWLPGIQN showed an amyloid nucleation score [1] of -0.226 ± 1.1.

For AWESIAFPCKVIYCYLRWTL, the amyloid nucleation score [1] was “inactive”.

Work on AWFMCSFECVTRSVKHALR yielded an amyloid nucleation score [1] of 0.523 ± 0.64.

Work on AWHSRTFVSLSLGRTSVEVL yielded an amyloid nucleation score [1] of -0.242 ± 0.45.

In the case of AWLWKMFNGTCNRWYINRPL, the amyloid nucleation score [1] is reported as -0.81 ± 0.76.

With AWSLDVTTM the amyloid nucleation score [1] was 0.051 ± 0.27.

AWSYVQFRTFYALTVPTSAL gave an amyloid nucleation score [1] of -0.125 ± 0.38.

Work on AYKCFGVLCFRRNRSGKEGL yielded an amyloid nucleation score [1] of -0.318 ± 0.76.

In the case of AYLLWVRYIYEHDSTIGWLI, the amyloid nucleation score [1] is reported as “inactive”.

For AYSGIECGVVQWSFYRRKLI, the amyloid nucleation score [1] was “inactive”.

With YSIDLFIRESDFDVHKKHIS the amyloid nucleation score [2] was “inactive”.

With YSILYKSYYLRMHWVVASRL the amyloid nucleation score [2] was “inactive”.

In the case of YSMQVICISCVLRIDIGDVA, the amyloid nucleation score [2] is reported as 0.89 ± 0.16.

In the case of YSRDIYVLEHV, the amyloid nucleation score [2] is reported as “inactive”.

For YSRLTLVAEPFYNMGVKNLM, the amyloid nucleation score [2] was “inactive”.

For YSSARTFSLHCIERLYSGYV, the amyloid nucleation score [2] was “inactive”.

YSSGSFCLFKWSIHR showed an amyloid nucleation score [2] of 1.65 ± 0.065.

With YSSLW the amyloid nucleation score [2] was “inactive”.

With YSTCDLGLHIGAQQERYGLG the amyloid nucleation score [2] was 0.253 ± 0.37.

For YSTFLFQGYLFLEPEYSGCR, the amyloid nucleation score [2] was “inactive”.

For YSTRPSYFLDLMLYIDTWVQ, the amyloid nucleation score [2] was “inactive”.

In the case of YSVDGICTRAVLGPVDWVNG, the amyloid nucleation score [2] is reported as “inactive”.

For YSVFAVFILRHGSRILY, the amyloid nucleation score [2] was “inactive”.

With YSWGRWICHNVVE the amyloid nucleation score [2] was -0.21 ± 0.74.

For YSWVKEYLSLLSYYCNYRVD, the amyloid nucleation score [2] was “inactive”.

Substance YTERYS has an amyloid nucleation score [2] of -0.265 ± 0.96.

For YTFTRV, the amyloid nucleation score [2] was “inactive”.

For YTGSVRFVEM, the amyloid nucleation score [2] was “inactive”.

For YTIALTRGLKFMVINCRTFY, the amyloid nucleation score [2] was “inactive”.

In the case of YTIVLLYERFQLAPTTMWMC, the amyloid nucleation score [2] is reported as “inactive”.

For YTLLCNPMVSKSARRLLNWI, the amyloid nucleation score [2] was “inactive”.

With YTLRCDFLRNTA the amyloid nucleation score [2] was “inactive”.

With YTNHFVDLGMVKLVLFTWNM the amyloid nucleation score [2] was 1.63 ± 0.11.

In the case of YTPRFMISSWVLRDFIHGVS, the amyloid nucleation score [2] is reported as “inactive”.

For YTPVIKCSYFTSIIGWAGPA, the amyloid nucleation score [2] was “inactive”.

With YTTKRL the amyloid nucleation score [2] was “inactive”.

YTVSFYIQLCTDRQISHRGI showed an amyloid nucleation score [2] of 2.34 ± 0.071.

In the case of YTYECRCH, the amyloid nucleation score [2] is reported as “inactive”.

With YVAIMLAKSKTRS the amyloid nucleation score [2] was “inactive”.

In the case of YVCCHERWVGFYSGK, the amyloid nucleation score [2] is reported as “inactive”.

In the case of YVDNLACLNSFPIMPVFKVG, the amyloid nucleation score [2] is reported as “inactive”.

In the case of YVDPRGVTVSWMSIYSRRAL, the amyloid nucleation score [2] is reported as “inactive”.

Substance YVFFLSLNIKPMLYTTLVGV has an amyloid nucleation score [2] of -0.138 ± 0.51.

For YVKMWHGFYFDRGNGRRDLN, the amyloid nucleation score [2] was “inactive”.

With YVLLVWDCRLFSVRISFRSV the amyloid nucleation score [2] was “inactive”.

In the case of YVRSYLILS, the amyloid nucleation score [2] is reported as “inactive”.

Substance YVVNFVLL has an amyloid nucleation score [2] of 2.43 ± 0.085.

For YVYSRVMECKDRHYETYFVA, the amyloid nucleation score [2] was “inactive”.

In the case of YWGIVVILSGDLRGYDH, the amyloid nucleation score [2] is reported as “inactive”.

With YWMNERLTSSKYDAGR the amyloid nucleation score [2] was “inactive”.

Work on YWNMKNFCSTTIIHRKGRFG yielded an amyloid nucleation score [2] of 0.65 ± 0.16.

In the case of YWSGRIKGTR, the amyloid nucleation score [2] is reported as “inactive”.

With YWVCPIGFFNCWLNRMTRLM the amyloid nucleation score [2] was 1.59 ± 0.12.

In the case of YYALKYVNLQLNKRNVTRWV, the amyloid nucleation score [2] is reported as “inactive”.

For YYFDDVTLKASTRDRVLARG, the amyloid nucleation score [2] was “inactive”.

With YYIYIYMCRLLVYIGFHFYW the amyloid nucleation score [2] was “inactive”.

In the case of YYLGLLTYRWGLRFFYLIVS, the amyloid nucleation score [2] is reported as “inactive”.

For YYLVSSMFYMFQSNEVNGNM, the amyloid nucleation score [2] was “inactive”.

In the case of YYLVYPRNIIMYKGNNFLKP, the amyloid nucleation score [2] is reported as 2.24 ± 0.063.
